Data taken from the supplement of paper PMC9170038.

System: MS2 coat protein
Experiment: apparent KD of MS2 coat protein; designed switch direction (-1 OFF switch, 1 ON switch): -1; higher = weaker reporter binding
Procedure, shortened: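 On Illumina chips, designed RNA switches with common flanks were made by stalled E. coli RNA polymerase. Titrations with SNAP-549-labelled MS2 coat protein, doubling from 0.7 or 1.5 nM to 3 µM, were done with no input, with 200 uM small-molecule ligand, or with an oligonucleotide input. Apparent KD is the median per design over clusters, from curve fits of normalised cluster fluorescence.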

[1] = Eterna round: R95, input ligand: FMN 200 uM
[2] = Eterna round: R95, input ligand: microRNA oligo, concentration not stated
[3] = Eterna round: R95, input ligand: none
[4] = input ligand: microRNA oligo, concentration not stated

Sequence | apparent KD of MS2 coat protein (input ligand: FMN 200 uM) [nM] | apparent KD of MS2 coat protein (input ligand: none) [nM] | apparent KD of MS2 coat protein [4] [nM] | other results
AUGGACGCAGGAUAUACAUGAGGAUCACCCAUGUGAGGUUGGUAAGUAGGAAGUGAAGGUAGAAGGGCGAGAGU [JR_Exclu3_Sub098] (puzzle: Exclusion 3) |  |  |  | apparent KD of MS2 coat protein [1]: 209 nM; apparent KD of MS2 coat protein [2]: 84.2 nM; apparent KD of MS2 coat protein [3]: 76.8 nM
AUGGACGCAGGAUAUACAUGAGGAUCACCCAUGUUAGGGUUAAGAGAAGGAAGGGAGAGUAGAAGGGCGAGAGU [JR_Exclu3_Sub0100] (puzzle: Exclusion 3) |  |  |  | apparent KD of MS2 coat protein [2]: 110 nM
AUGGCGUUAGGAUAUACUAUGGGCCUGGACAGUGCACCUCCACAUGAGGAUCACCCAUGUAGAAGGAACUCGAG [Eternabot (L2) Solution 99] (Eterna round: R97, puzzle: Exclusion 2) | 26.9 | 20.8 |  | 
AUGGUUCGAUUAGGAUAUUAUAGAUUGAAUAGUAUGAUUUACAUGAGGAUCACCCAUGUUACAUAUAAGAAGGAAUCGAAUCAU [JR_ExcNG2_Sub087] (Eterna round: R96, puzzle: Exclusion NG 2) |  |  | 11.5 | 
AUGUACCGGUGAGGAUAUUUUUAAUAGAGCUUUAUGAUAUACAUGAGGAUCACCCAUGUUACGUUAAAGAAGGCAUCGGAUUAA [Mat - Exclusion NG 2 - Mod of JL - D96] (Eterna round: R96, puzzle: Exclusion NG 2) |  |  | 14 | 
AUGUAGGAAGGAUAUGCGUCGGCAUGAAAUCCUUGUUGGCCACAUGAGGAUCACCCAUGUAGAAGGUUCACGUA [Eternabot (L2) Solution 10] (Eterna round: R97, puzzle: Exclusion 2) | 48.8 | 52.7 |  | 
AUGUUGCGAGGAUAUAUAUGGAGGUUAAAAUUUGAUAUGGAACAUGAGGAUCACCCAUGUAGAAGGUGCAUAAC [JR_Ex2_Sub039] (Eterna round: R97, puzzle: Exclusion 2) | 155 | 57.5 |  | 
AUUAAAAUAUAGGAUAUCGAAUAUAUUAUUUAACGAGAAGGAUGAACAUGAGGAUCACCCAUGUGGUAUCAUGG [Mat - Exclusion 6 - JL Mod - D36] (puzzle: Exclusion 6) |  |  |  | apparent KD of MS2 coat protein [1]: 157 nM; apparent KD of MS2 coat protein [2]: 298 nM; apparent KD of MS2 coat protein [3]: 402 nM
AUUAAUGUCAAAGGAUAUCAGCACGAUUAGUGCUGAGAAGGUUGAACAUGAGGAUCACCCAUGUAGAUCAUUAAUAAUUUAAUU [ENG1/10-B2] (Eterna round: R96, puzzle: Exclusion NG 1) | 26.4 | 16.9 | 17.9 | 
AUUAGCUGAGGAUAUGCAGCUUUGUUCGUCGAGUGAAAAGAACAUGAGGAUCACCCAUGUAGAAGGCAGUUGAC [Raargexe] (puzzle: Exclusion 2) |  |  |  | apparent KD of MS2 coat protein [2]: 14.8 nM
AUUAGUAAUAAGGAUAUCACUAGCUGCGGCUAGUGAGAAGGUAUUACAUGAGGAUCACCCAUGUGAUCAAUUAA [E6/3-A3] (Eterna round: R97, puzzle: Exclusion 6) | 912 | 476 |  | 
AUUAUAUAGACAGGAUAUUGAUUAUUAUUUUAACAUGAGGAUCACCCAUGUAGCCUUAUGUAUAGCAAGAAGGGUCAUUUAUUA [Title] (Eterna round: R96, puzzle: Exclusion NG 2) |  |  | 122 | 
AUUAUAUAGUUAGGAUAUUGAUUAUUAUUUUAACAUGAGGAUCACCCAUGUAGCCUUAUGUAUAACAAGAAGGAACAUUUAUUA [Title] (Eterna round: R96, puzzle: Exclusion NG 2) |  |  | 97.9 | 
AUUAUGUGAGGAUAUUAGUAGUAAAUAAAUAAAAUUAUUACUGAGAAGGCACAUGAGGAUCACCCAUGUUCCUU [Salish 062 v6] (Eterna round: R97, puzzle: Exclusion 4) | 127 | 24.1 |  | 
AUUGAUAUUGAGGAUAUGCUUUUAUUUGAACAAGCAGAAGGCGAUACAUGAGGAUCACCCAUGUUUAUGGAAGU [JR_E6_Sub087] (puzzle: Exclusion 6) |  |  |  | apparent KD of MS2 coat protein [1]: 51.6 nM; apparent KD of MS2 coat protein [2]: 37.6 nM; apparent KD of MS2 coat protein [3]: 49.4 nM
AUUGUAUGGGAAGGAUAUAGAAUAUUAUUUUAACAUGAGGAUCACCCAUGUAACCUUAUGUGUAGCUAGAAGGUCCGUUUAUUA [Title] (Eterna round: R96, puzzle: Exclusion NG 2) |  |  | 112 | 
AUUGUUUAUGUAGGAUAUGCCUGGCGUGCCUUCGCAGAAGGACAUGAGGAUCACCCAUGUAUUGCGGUCUGCGUUCAGAUCGCA [salish99_ExNG1_r4_024] (Eterna round: R96, puzzle: Exclusion NG 1) |  |  | 45.2 | 
AUUGUUUGAUACCUCUAAUACAUGAGGAUCACCCAUGUUAUCGAGGAUAUGCAGAAUAGAUUAGAGCAGAAGGCGAAGUAAUAU [JR_ExcNG3_Sub026] (Eterna round: R96, puzzle: Exclusion NG 3) | 31.1 | 15.6 | 13.3 | 

Sequence | apparent KD of MS2 coat protein (input ligand: FMN 200 uM) [nM] | apparent KD of MS2 coat protein (input ligand: none) [nM] | apparent KD of MS2 coat protein [4] [nM] | other results
AUUUAAUUUAAUAAGAUCACAUGAGGAUCACCCAUGUUAUAAUAGGAUAUCAGCUCGAAUAGAGCUGAGAAGGAUUAUAACAUG [ExNG3/9-A4] (Eterna round: R96, puzzle: Exclusion NG 3) | 17.2 | 29 | 138 | 
AUUUAGCAAGCGUGAUCCUACAUGAGGAUCACCCAUGUAGUUCGUCUUAUUUGAAGACAACACAAAAGUGUUGUCUU [Omei Mir OFFv1 B8] (Eterna round: R97, puzzle: Sensor, turn-off variant 1) | 355 | 212 |  | 
AUUUUGUCAGGAUAUGAGUAGUAGGACGAAAGUGUUAUUAUUUAGAAGGGACAUGAGGAUCACCCAUGUUUCUC [Bring Us a Shrubbery-02] (puzzle: Exclusion 4) |  |  |  | apparent KD of MS2 coat protein [2]: 12.2 nM
AUUUUGUCAGGAUAUUGUUAGUUUAGUUGUUUGUAUUAGUUCGAGAAGGGACAUGAGGAUCACCCAUGUGAUUU [Ex4 #74] (Eterna round: R97, puzzle: Exclusion 4) | 135 | 114 |  | 
AUUUUGUGAGGAUAUGGUAACGUUUACAUGAGGAUCACCCAUGUUUCAUGGGACUAGAGACUAGAAGGCACUAACG [JR_Ex5_Sub028] (Eterna round: R97, puzzle: Exclusion 5) | 251 | 279 |  | 
AUUUUGUGAGGAUAUUAGAAGUAGAAAGUUGGUAGUAUUGCUGAGAAGGCACAUGAGGAUCACCCAUGUACAAC [JR_Ex4_Sub036] (Eterna round: R97, puzzle: Exclusion 4) | 17.6 | 16.7 |  | 
AUUUUGUGAGGAUAUUAGUUGUAGAAAAUUAUUAGUUUAGCUGAGAAGGCACAUGAGGAUCACCCAUGUAAAUC [JR_Ex4_Sub043] (Eterna round: R97, puzzle: Exclusion 4) | 26.7 | 18.6 |  | 
AUUUUGUGAGGAUAUUAGUUGUAGAAAGUUGUUAGUAUUGCUGAGAAGGCACAUGAGGAUCACCCAUGUACAAC [JR_Ex4_Sub038] (Eterna round: R97, puzzle: Exclusion 4) | 20.6 | 19.1 |  | 
CAAAACCUAGGAUAUACAUGAGGAUCACCCAUGUCGGGCCUACGCUAAACGCGCCUCAGUAGAAGGAGGGAAAC [Usasoon] (puzzle: Exclusion 3) |  |  |  | apparent KD of MS2 coat protein [1]: 135 nM; apparent KD of MS2 coat protein [2]: 52.6 nM; apparent KD of MS2 coat protein [3]: 63.2 nM
CAAGCUAUUGUAGCAACUAACAUGAGGAUCACCCAUGUAGGCAUAACUUACCUAGCUCGUUUAUACAAAUCAAUUGU [Eternabot (L2) Solution 11] (Eterna round: R97, puzzle: Sensor, turn-off variant 1) | 13.1 | 17.6 |  | 
CAAUAGUGAGGAUAUCUGAUCACACCAUGAAGAAGGAGUGUAGAGAAGGCACAUGAGGAUCACCCAUGUCCCGU [Eternabot (L2) Solution 43] (Eterna round: R97, puzzle: Exclusion 4) | 37 | 23.9 |  | 
CAAUUCCGAGGAUAUACAUGAGGAUCACCCAUGUCGGGCCUCAGCGUUUAGCGCUUAAGUAGAAGGUGGGUUUC [JL Riri mod 5] (puzzle: Exclusion 3) |  |  |  | apparent KD of MS2 coat protein [2]: 32.5 nM
CACAUUACAAAGGAUAUCUGACCAUGCCCUGGCAGAGAAGGUUGGACAUGAGGAUCACCCAUGUGUAUCCAAGU [Eternabot (Original) Solution 6] (Eterna round: R97, puzzle: Exclusion 6) | 37.7 | 26.8 |  | 
CACCAUCGUGUAAGGAUAUCGAGGCUUAGCGGGUGUGAGAAGGUACAUGAGGAUCACCCAUGUUACGAUUUGCG [Eternabot (L1) Solution 77] (Eterna round: R97, puzzle: Brourd's mod of Exclusion 4) | 28.8 | 25.6 |  | 
CACCCACAUGAGGAUCACCCAUGUGAGGAUAUGAUACUAUGUACUUCGGUACAUAGUAUCAGAAGGCACAGGUG [Ex1-3: 61] (Eterna round: R96, puzzle: Exclusion 1) | 102 | 28 | 25.7 | 
CACCCACAUGAGGAUCACCCAUGUGAGGAUAUGAUACUAUGUACUUCGGUACAUAGUAUCAGAAGGCACAGGUG [Ex1-3: 61] (puzzle: Exclusion 1) |  |  |  | apparent KD of MS2 coat protein [2]: 30.3 nM
CACCGUUAAGUAGGAUAUCGUACAUGAGGAUCACCCAUGUAAUAAAUGAGAAUUUCGGAUGUAUGCGAGAAGGACUAAAUCGGC [Ostricism 45 - Jieux - Exclusion NG 2] (Eterna round: R96, puzzle: Exclusion NG 2) |  |  | 39 | 
CACCGUUACUGAGGAUAUGGCACAUGAGGAUCACCCAUGUAAUAAAUGAGAAUUUCGGAUGUAUUCCAGAAGGCAGUAACCGGC [Ostricism 69 - Jieux - Exclusion NG 2] (Eterna round: R96, puzzle: Exclusion NG 2) | 30 | 27.1 | 23.3 | 
